For assay [1], the target named is T1, mature CIS43 antibody (IgG).
T1 construct: also called CIS43 WT
The experiment in a line: competition ELISA (MSD): peptide pre-incubated with CIS43, read-out CIS43 bound to plate-bound rPfCSP. (An ELISA detects its analyte on a solid surface through an enzyme-linked reagent.)
Method: Peptides were all 15 amino acids in length, overlapping by 11 residues, and numbered according to their position on the protein. Briefly, streptavidin-coated plates (Meso Scale Discovery, MSD) were blocked with 5% BSA in PBS for 30 min at room temperature (RT), washed five times (wash buffer, 0.05% Tween-20 in PBS), then coated with biotinylated-recombinant PfCSP (0.2 μg/mL, Genscript) in PBS with 1% BSA, and allowed to incubate for 1 h at RT. […] Plates were incubated for 1 h at RT, washed five times, then incubated for an additional 1 h at RT with 1 μg/mL of appropriate secondary (either anti-human or anti-mouse) IgG SULFO-TAG (Meso Scale Discovery) in PBS with 1% BSA/0.05% Tween-20. After washing, plates were read using 1×MSD Read T Buffer (Meso Scale Discovery) on an MSD SECTOR © Imager 6000 instrument.

Assay [2] has as its target T2, peptide NANP5, penta-NANP repeat (not fully specified; biotinylated).
T2 construct: Printed only as the formula (NANP)5 / NANP5
T2 peptide: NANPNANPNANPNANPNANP
The experiment in a line: BLI (Octet), Fab on biotinylated NANP5 peptide.
Method: (§1) Affinity measurements by BLI. Antibody Fab binding affinity to various ligands were measured using biolayer interferometry on an Octet Red384 instrument (fortdBio) with streptavidin capture biosensors (fortdBio) in solid black tilt-well 96-well plates (Geiger Bio-One). Assays were performed with agitation at 25° C. […] In all Octet measurements, parallel correction to subtract systematic baseline drift was carried out by subtracting the measurements recorded for a loaded sensor incubated in PBS. Data analysis was carried out using Octet software, version 9.0. Experimental data were fitted globally with a 1:1 Langmuir model of binding.

In assay [3] the target is T3, recombinant Plasmodium falciparum circumsporozoite protein (rPfCSP), biotinylated (Plasmodium falciparum, UniProt P19597 21-375). The experiment in a line: BLI (Octet), Fab on biotinylated rPfCSP; 2-component fit, second KD (KD2). For orientation: BLI is a label-free optical method that tracks binding on a fibre tip over time.
T3 sequence (P19597 21-375 limits assumed): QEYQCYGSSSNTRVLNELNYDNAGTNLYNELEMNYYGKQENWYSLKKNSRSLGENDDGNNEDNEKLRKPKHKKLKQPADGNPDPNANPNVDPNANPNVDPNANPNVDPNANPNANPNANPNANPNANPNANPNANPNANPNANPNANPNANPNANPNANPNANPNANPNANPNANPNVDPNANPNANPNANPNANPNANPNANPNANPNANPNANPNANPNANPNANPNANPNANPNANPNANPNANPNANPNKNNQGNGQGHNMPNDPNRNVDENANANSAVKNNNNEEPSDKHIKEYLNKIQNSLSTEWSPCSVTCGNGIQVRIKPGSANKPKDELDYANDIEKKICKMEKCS
Method: as §1
Assay [4] deals with T3, recombinant Plasmodium falciparum …. The experiment in a line: BLI (Octet), Fab on biotinylated rPfCSP; 2-component fit, primary KD.
Method: as §1
A further assay deals with T4, NPDP19-KLH conjugate (Plasmodium falciparum, also: conjugated to KLH carrier via maleimide linker, site not given here).
T4 construct: not shown: KLH carrier protein (about 390 kDa)
T4 peptide: KQPADGNPDPNANPNVDPN
In words: ELISA on NPDP19-KLH.

No end group written: not given here.

Results on nine molecules are retold here after US20250011406A1 (US Dept. of Health and Human Services, published 2025).

T1 sequence (heavy, as listed by the source, chain 1 of 2): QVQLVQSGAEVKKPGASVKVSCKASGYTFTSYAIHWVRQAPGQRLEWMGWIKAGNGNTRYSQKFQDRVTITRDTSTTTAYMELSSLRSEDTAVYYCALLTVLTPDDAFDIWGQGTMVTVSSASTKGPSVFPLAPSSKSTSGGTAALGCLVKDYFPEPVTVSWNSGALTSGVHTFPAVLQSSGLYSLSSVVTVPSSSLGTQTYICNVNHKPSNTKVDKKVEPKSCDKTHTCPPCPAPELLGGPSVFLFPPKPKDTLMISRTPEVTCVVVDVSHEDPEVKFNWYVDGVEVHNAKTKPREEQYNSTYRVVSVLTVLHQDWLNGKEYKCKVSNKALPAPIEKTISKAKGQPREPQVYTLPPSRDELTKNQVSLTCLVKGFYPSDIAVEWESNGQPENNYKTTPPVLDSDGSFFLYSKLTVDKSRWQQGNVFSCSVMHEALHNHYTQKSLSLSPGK
T1 sequence (light, as listed by the source, chain 2 of 2): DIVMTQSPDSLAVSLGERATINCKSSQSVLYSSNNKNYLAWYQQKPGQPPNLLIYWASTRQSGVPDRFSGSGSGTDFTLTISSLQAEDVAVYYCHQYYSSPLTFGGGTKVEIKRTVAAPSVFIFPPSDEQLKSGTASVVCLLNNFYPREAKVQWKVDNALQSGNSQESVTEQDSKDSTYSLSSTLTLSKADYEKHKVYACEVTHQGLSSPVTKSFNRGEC

In the case of NANPNANPNVDPNAN (also called PfCSP peptide 43) [43: NANPNANPNVDPNAN], in assay [1], the binding result is given as “binds”.

Turning to NVDPNANPNANPNAN (also called PfCSP peptide 27) [27: NVDPNANPNANPNAN], the binding result in assay [1] is reported as “binds”.

Turning to NANPNVDPNANPNAN (also called PfCSP peptide 44) [44: NANPNVDPNANPNAN], the binding result in assay [1] is reported as “binds”.

B1: iGL-CIS43-HL.K28.m43.151 Fab (Fab, V domains shown)
VH: QVHLVQSGAEVKKPGASVKVSCKASGYTFTSYAIHWVRQAPGQRLEWMGWIKGGNGNTRYSQKFQDRVTITRDTSASTAYMELSSLRSEDTAVYYCALLTVITPDDAFDIWGQGTMVTVSS
VL: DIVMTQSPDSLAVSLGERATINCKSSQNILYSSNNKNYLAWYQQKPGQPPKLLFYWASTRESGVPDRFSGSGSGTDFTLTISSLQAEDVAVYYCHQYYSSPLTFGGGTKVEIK
notes: also called m43_HH28K.17
What is called Kd is the constant that tells how readily two partners part at equilibrium. Consider B1, for which the Kd in assay [2] was 715 nM; in assay [3], 1700 nM; in assay [4] it was 38.3 nM.

B2: iGL-CIS43-HL.K28.m42.127 Fab (Fab, V domains shown)
VH: QVQLVQSGAEVKKPGASVKVSCKASGYTFTSYAIHWVRQAPGQRLEWMGWIKAGNGNTRYSQKFQDRVTITRDTSASTAYMELSSLRSEDTAVYYCALLTVITPDDTFDIWGQGTMVTVSS
VL: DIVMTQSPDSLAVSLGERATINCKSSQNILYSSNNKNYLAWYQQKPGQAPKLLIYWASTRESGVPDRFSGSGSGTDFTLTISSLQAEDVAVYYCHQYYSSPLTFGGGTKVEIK
notes: also called m42_HH28K.13
In the case of B2, the Kd in assay [2] came to 952 nM; in assay [3], 1980 nM; in assay [4], 31.6 nM.

B3: inferred germline CIS43 (iGL-CIS43) Fab (Fab, V domains shown)
VH: QVQLVQSGAEVKKPGASVKVSCKASGYTFTSYAMHWVRQAPGQRLEWMGWINAGNGNTKYSQKFQGRVTITRDTSASTAYMELSSLRSEDTAVYYCALLTVVTPDDAFDIWGQGTMVTVSS
VL: not shown
notes: also called CIS43 gHgL; iGL-CIS43_UCA
For the molecule B3, the dissociation constant Kd stood at 9650 nM in assay [2], 5050 nM in assay [3] and 679 nM in assay [4].

B4: m43.160 Fab (Fab, V domains shown)
VH: QVQLVQSGAEVKKPGASVKVSCKASGYTFTSYAIHWVRQAPGQRLEWMGWIKAGNGNTRYSQKFQGRVTITRDTSASTAYMELSSLRSEDTAGYYCALLTVITPDDAFDIWGQGTMVTVSS
VL: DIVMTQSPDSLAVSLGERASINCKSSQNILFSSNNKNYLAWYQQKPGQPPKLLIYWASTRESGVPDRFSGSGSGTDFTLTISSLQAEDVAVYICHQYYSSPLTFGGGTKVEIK
notes: also called m43_HH28K.26
For the molecule B4, the Kd in assay [2] worked out at 957 nM; in assay [3], 1820 nM; in assay [4], 36.8 nM.

B5: inferred germline CIS43 (iGL-CIS43) mAb (IgG) (antibody, V domains shown)
VH: QVQLVQSGAEVKKPGASVKVSCKASGYTFTSYAMHWVRQAPGQRLEWMGWINAGNGNTKYSQKFQGRVTITRDTSASTAYMELSSLRSEDTAVYYCALLTVVTPDDAFDIWGQGTMVTVSS
VL: not shown
notes: as for B3
Take B5: the binding result with NPDP19-KLH conjugate is “binds”.

B6: mature CIS43 Fab (Fab, V domains shown)
VH: QVQLVQSGAEVKKPGASVKVSCKASGYTFTSYAIHWVRQAPGQRLEWMGWIKAGNGNTRYSQKFQDRVTITRDTSTTTAYMELSSLRSEDTAVYYCALLTVLTPDDAFDIWGQGTMVTVSS
VL: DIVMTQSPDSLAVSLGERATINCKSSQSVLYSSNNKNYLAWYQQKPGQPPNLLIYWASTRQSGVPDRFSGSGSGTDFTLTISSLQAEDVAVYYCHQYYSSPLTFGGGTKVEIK
notes: also called CIS43 mature; CIS43 WT
Regarding B6, the Kd is 411 nM in assay [2], 1330 nM in assay [3] and 45.2 nM in assay [4].
